Values belong to the binder of their own block, whether it stands above or below them.
Legend:
[1] = target: T1, full length recombinant TDP-43 (UniProt Q13148 1-414); test: ELISA; synthetic peptides (5 µg/mL in PBS, 10 mM EDTA) coupled through cysteine to maleimide-activated microplate wells, blocked with L-cysteine; 0.1 µg/mL recombinant protein added 1 h at 37 °C; biotinylated detection antibody, streptavidin-HRP, TMB, absorbance at 450 nm; conditions: both partners purified
T1 construct: Called monomeric in the conventional ELISA; also called full-length TDP-43; source: recombinant

[2] = target: full length recombinant alpha synuclein (UniProt P37840 1-140); test: as above; conditions: both partners purified

T1 sequence (Q13148 whole entry): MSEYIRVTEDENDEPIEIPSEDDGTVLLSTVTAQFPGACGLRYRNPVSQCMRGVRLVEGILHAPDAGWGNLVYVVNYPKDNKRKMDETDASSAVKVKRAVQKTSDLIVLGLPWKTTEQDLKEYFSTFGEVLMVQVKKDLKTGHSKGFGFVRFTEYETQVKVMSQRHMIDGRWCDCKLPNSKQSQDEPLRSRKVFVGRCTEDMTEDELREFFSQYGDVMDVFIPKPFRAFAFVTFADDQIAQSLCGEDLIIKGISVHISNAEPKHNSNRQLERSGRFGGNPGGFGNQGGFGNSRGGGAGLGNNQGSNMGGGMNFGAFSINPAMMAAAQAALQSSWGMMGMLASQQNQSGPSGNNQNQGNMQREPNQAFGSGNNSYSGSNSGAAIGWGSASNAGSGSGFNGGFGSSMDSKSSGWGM

- binding result [1]: binds
B1: α-synuclein peptide, amino acids 61–76 (peptide, UniProt P37840 61-76, looked up)
peptide: EQVTNVGGAVVTGVTA
notes: alpha synuclein residues 61-76, start of the non-amyloid β component (NAC); also called first 16 residues of the NAC; first 15 residues of the NAC region; source: synthetic peptide (Lugen Sci Co., Ltd.)

- binding result [2]: binds
B2: TDP-43 peptide 17 (aa 310–329) (peptide)
peptide: GMNFGAFSINPAMMAAAQAA
notes: That this stretch has no internal cysteine is my surmise; source: synthetic peptide (Lugen Sci Co., Ltd.)

- binding result [2]: binds
B3: TDP-43 overlapping peptide aa 305–323 (peptide)
peptide: SNMGGGMNFGAFSINPAMM
notes: source: synthetic peptide (Lugen Sci Co., Ltd.)

— PMC8836581, “A Microplate-Based Approach to Map Interactions between TDP-43 and α-Synuclein” (Journal of Clinical Medicine, 2022)
